In test [1] the target is Nucleosomes (cfDNA measured by Nu.Q H3.1 assay) in porcine liver perfusion solution (porcine). Kind of test: batch depletion: porcine liver perfusate with 10% v/v antibody-agarose matrix, 60 min, 37 C; what is left is measured by Nu.Q H3.1 assay; sample 1, before incubation 92466 ng/ml.
Test [2] shares this target. Kind of test: batch depletion: porcine liver perfusate with 10% v/v antibody-agarose matrix, 60 min, 37 C; what is left is measured by Nu.Q H3.1 assay; sample 2, before incubation 73536 ng/ml.
For test [3] the target is unchanged. The test is described as follows: batch depletion: porcine liver perfusate with 10% v/v antibody-agarose matrix, 60 min, 37 C; what is left is measured by Nu.Q H3.1 assay; sample 3, before incubation 87643 ng/ml.

Turning to “Antibody against histone H3.1 (Merck Millipore MABE952), coupled to NHS-activated Sepharose 4 Fast Flow”, the cfDNA quantity in perfusate after incubation with the matrix (Nu.Q H3 Assay) amounted to 38800 ng/mL in test [1], 24300 ng/mL in test [2] and 29800 ng/mL in test [3].
